Measurements taken from PMC7525064, “Transcriptome Analysis of Different Tissues Reveals Key Genes Associated With Galanthamine Biosynthesis in Lycoris longituba” (Frontiers in Plant Science, 2020).

Substrate: Oc1ccc(CCNCc2ccc(O)c(O)c2)cc1
Assay: purified protein
Format: biochemical, Lycoris longituba
Conditions: 200 μM AdoMet, 50 μM-2 mM norbelladine, 30 mM potassium phosphate pH 8.0, 30°C, 2 h

B1: LlOMT (Lycoris longituba O-Methyltransferase) (Lycoris longituba) (protein)
chain: MGASQDDYALIHKNILHSEDLLKYILETSVYPREHEQLKGLREVTEKHEWSMALVAADEGLFLSMLLKLMNAKRTIEIGVYTGYSLLTTALALPEDGKITAIDVNKSYFEIGLPFIQKAGVEHKINFIESEALPVLDQMLQEMKEEDLYDFAFVDADKPNYANYHERLVKLVRVGGAIVYDNTLWFGTVAFPEYPGLHPEEEECRVSFRNLNKLLAADPRVEISQVSIGDGLTICRRLY
  Km: 317 ± 17 µM
